*1 amine or outer side, *2 acyl side, *3 side chain or, on linkers, in order; H or OH if unused. Bridges are numbered along the chain shown (N, C = ends). Where no end group is shown, it is not given here. [ ]: non-standard residue; d: D form. dStyrA = (R)-styryl-alanine, (D)-StyrA, O=C([C@@H](C/C=C/c1ccccc1)N[*:1])[*:2]; S6H = (2S)-2-aminooct-7-enoic acid, C=CCCCC[C@H](N[*:1])C(=O)[*:2]; S7H3 = (2S)-2-aminononanoic acid, CCCCCCC[C@H](N[*:1])C(=O)[*:2]; Leu(5,5,5,5',5',5'-F6) = N[C@@H](CC(C(F)(F)F)C(F)(F)F)C(=O)O; dNle(6-ylidene) = O=C([C@@H](CCCC=[*:3])N[*:1])[*:2]; Ala(E-styryl) = N[C@@H](C/C=C/c1ccccc1)C(=O)O; Gly(oct-7-en-1-yl) = C=CCCCCCC[C@H](N)C(=O)O; dGly(6-heptenyl) = C=CCCCCC[C@@H](N)C(=O)O; Ala(5-hexenyl) = C=CCCCCC[C@H](N)C(=O)O; Gla = N[C@@H](CC(C(=O)O)C(=O)O)C(=O)O; S8H3 = not defined here; R5H = not defined here; Aib = CC(C)(N)C(=O)O
B1: CONS[R7H^13] (peptide)
peptide: Ac-PVLDEFREKLNE[dGly(6-heptenyl)]LEALKQKLK
modifications: not fully specified (C-terminus)
B2: CONS[S7H^9] (peptide)
peptide: Ac-PVLDEFRE[Ala(5-hexenyl)]LNEELEALKQKLK
B3: CONS[E^4, Q^11, S8H3^13,] (peptide)
peptide: Ac-PVLEEFREKLQE[S8H3]LEALKQKLK
modifications: not fully specified (C-terminus); printed as PVLEEFREKLQES8H3LEALKQKLK; reading uncertain; also: calls X13 alkenyl side chain-substituted amino acid
B4: GLA8/ALA13 (peptide)
peptide: Ac-PVLDEFR[Gla]KLNEALEALKQKLK
modifications: not fully specified (C-terminus)
B5: CONS[S8H3^13] (peptide)
peptide: Ac-PVLDEFREKLNE[S8H3]LEALKQKLK
modifications: reading uncertain
B6: CONS[(S)STYRA^13] (peptide)
peptide: Ac-PVLDEFREKLNE[Ala(E-styryl)]LEALKQKLK
modifications: not fully specified (C-terminus)
B7: GLA8/AIB13 (peptide)
peptide: Ac-PVLDEFR[Gla]KLNE[Aib]LEALKQKLK
modifications: not fully specified (C-terminus)
B8: GLA15/AIB13 (peptide)
peptide: Ac-PVLDEFREKLNE[Aib]L[Gla]ALKQKLK
modifications: not fully specified (C-terminus)
B9: CONS[S6H^2] (peptide)
peptide: Ac-P[S6H]LDEFREKLNEELEALKQKLK
modifications: not fully specified (C-terminus)
B10: CONS[(R)STYRA^13] (peptide)
peptide: Ac-PVLDEFREKLNE[dStyrA]LEALKQKLK
modifications: not fully specified (C-terminus)
B11: CONS[S7H^13,20] (peptide)
peptide: Ac-PVLDEFREKLNE[Ala(5-hexenyl)]LEALKQ[Ala(5-hexenyl)]LK
B12: CONS[S7H^10] (peptide)
peptide: Ac-PVLDEFREK[Ala(5-hexenyl)]NEELEALKQKLK
B13: CONS[R5H^13] (peptide)
peptide: Ac-PVLDEFREKLNE[dNle(6-ylidene)]LEALKQKLK
modifications: not fully specified (C-terminus)
B14: CONS[K^7, S7H^13] (peptide)
peptide: Ac-PVLDEFKEKLNE[Ala(5-hexenyl)]LEALKQKLK
modifications: not fully specified (C-terminus)
B15: CONS[S6H^20] (peptide)
peptide: Ac-PVLDEFREKLNEELEALKQ[S6H]LK
modifications: not fully specified (C-terminus); printed as PVLDEFREKLNEELEALKQS6HLK
B16: CONS[S7H^17] (peptide)
peptide: Ac-PVLDEFREKLNEELEA[Ala(5-hexenyl)]KQKLK
B17: CONS[S7H^6,13] (peptide)
peptide: Ac-PVLDE[Ala(5-hexenyl)]REKLNE[Ala(5-hexenyl)]LEALKQKLK
B18: CONS[R7H^20] (peptide)
peptide: Ac-PVLDEFREKLNEELEALKQ[dGly(6-heptenyl)]LK
modifications: not fully specified (C-terminus); printed as PVLDEFREKLNEELEALKQR7HLK
B19: CONS[R7H^2] (peptide)
peptide: Ac-P[dGly(6-heptenyl)]LDEFREKLNEELEALKQKLK
modifications: not fully specified (C-terminus)
B20: R5H [K9-E13]R5H CLOSED RING (peptide)
peptide: Ac-PVLDEFRE[R5H]LNE[R5H]LEALKQKLK
modifications: staple 9-13; reading uncertain
B21: CONS[S8H^13] (peptide)
peptide: Ac-PVLDEFREKLNE[Gly(oct-7-en-1-yl)]LEALKQKLK
B22: CONS[HF-LEU^,13] (peptide)
peptide: Ac-PVLDEFREKLNE[Leu(5,5,5,5',5',5'-F6)]LEALKQKLK
modifications: not fully specified (C-terminus)
B23: CONS[E^4, Q^11, S8H^13] (peptide)
peptide: Ac-PVLEEFREKLQE[Gly(oct-7-en-1-yl)]LEALKQKLK
modifications: not fully specified (C-terminus)
B24: R5H [E13-L17]R5H CLOSED RING (peptide)
peptide: Ac-PVLDEFREKLNE[R5H]LEA[R5H]KQKLK
modifications: staple 13-17; reading uncertain
B25: CONS[S6H^13] (peptide)
peptide: Ac-PVLDEFREKLNE[S6H]LEALKQKLK
modifications: not fully specified (C-terminus)
B26: CONS[E^4, S7H^6,13, Q^11] (peptide)
peptide: Ac-PVLEE[Ala(5-hexenyl)]REKLQE[Ala(5-hexenyl)]LEALKQKLK
modifications: not fully specified (C-terminus)
B27: CONS[S7H3^13] (peptide)
peptide: Ac-PVLDEFREKLNE[S7H3]LEALKQKLK
modifications: not fully specified (C-terminus); printed as PVLDEFREKLNES7H3LEALKQKLK
B28: CONS[S7H^2,13] (peptide)
peptide: Ac-P[Ala(5-hexenyl)]LDEFREKLNE[Ala(5-hexenyl)]LEALKQKLK
B29: CONS[S7H^6] (peptide)
peptide: Ac-PVLDE[Ala(5-hexenyl)]REKLNEELEALKQKLK

Target: ATP-binding cassette transporter A1 (ABCA1) (mouse, UniProt P41233 1-2261)
Sequence (P41233 whole entry): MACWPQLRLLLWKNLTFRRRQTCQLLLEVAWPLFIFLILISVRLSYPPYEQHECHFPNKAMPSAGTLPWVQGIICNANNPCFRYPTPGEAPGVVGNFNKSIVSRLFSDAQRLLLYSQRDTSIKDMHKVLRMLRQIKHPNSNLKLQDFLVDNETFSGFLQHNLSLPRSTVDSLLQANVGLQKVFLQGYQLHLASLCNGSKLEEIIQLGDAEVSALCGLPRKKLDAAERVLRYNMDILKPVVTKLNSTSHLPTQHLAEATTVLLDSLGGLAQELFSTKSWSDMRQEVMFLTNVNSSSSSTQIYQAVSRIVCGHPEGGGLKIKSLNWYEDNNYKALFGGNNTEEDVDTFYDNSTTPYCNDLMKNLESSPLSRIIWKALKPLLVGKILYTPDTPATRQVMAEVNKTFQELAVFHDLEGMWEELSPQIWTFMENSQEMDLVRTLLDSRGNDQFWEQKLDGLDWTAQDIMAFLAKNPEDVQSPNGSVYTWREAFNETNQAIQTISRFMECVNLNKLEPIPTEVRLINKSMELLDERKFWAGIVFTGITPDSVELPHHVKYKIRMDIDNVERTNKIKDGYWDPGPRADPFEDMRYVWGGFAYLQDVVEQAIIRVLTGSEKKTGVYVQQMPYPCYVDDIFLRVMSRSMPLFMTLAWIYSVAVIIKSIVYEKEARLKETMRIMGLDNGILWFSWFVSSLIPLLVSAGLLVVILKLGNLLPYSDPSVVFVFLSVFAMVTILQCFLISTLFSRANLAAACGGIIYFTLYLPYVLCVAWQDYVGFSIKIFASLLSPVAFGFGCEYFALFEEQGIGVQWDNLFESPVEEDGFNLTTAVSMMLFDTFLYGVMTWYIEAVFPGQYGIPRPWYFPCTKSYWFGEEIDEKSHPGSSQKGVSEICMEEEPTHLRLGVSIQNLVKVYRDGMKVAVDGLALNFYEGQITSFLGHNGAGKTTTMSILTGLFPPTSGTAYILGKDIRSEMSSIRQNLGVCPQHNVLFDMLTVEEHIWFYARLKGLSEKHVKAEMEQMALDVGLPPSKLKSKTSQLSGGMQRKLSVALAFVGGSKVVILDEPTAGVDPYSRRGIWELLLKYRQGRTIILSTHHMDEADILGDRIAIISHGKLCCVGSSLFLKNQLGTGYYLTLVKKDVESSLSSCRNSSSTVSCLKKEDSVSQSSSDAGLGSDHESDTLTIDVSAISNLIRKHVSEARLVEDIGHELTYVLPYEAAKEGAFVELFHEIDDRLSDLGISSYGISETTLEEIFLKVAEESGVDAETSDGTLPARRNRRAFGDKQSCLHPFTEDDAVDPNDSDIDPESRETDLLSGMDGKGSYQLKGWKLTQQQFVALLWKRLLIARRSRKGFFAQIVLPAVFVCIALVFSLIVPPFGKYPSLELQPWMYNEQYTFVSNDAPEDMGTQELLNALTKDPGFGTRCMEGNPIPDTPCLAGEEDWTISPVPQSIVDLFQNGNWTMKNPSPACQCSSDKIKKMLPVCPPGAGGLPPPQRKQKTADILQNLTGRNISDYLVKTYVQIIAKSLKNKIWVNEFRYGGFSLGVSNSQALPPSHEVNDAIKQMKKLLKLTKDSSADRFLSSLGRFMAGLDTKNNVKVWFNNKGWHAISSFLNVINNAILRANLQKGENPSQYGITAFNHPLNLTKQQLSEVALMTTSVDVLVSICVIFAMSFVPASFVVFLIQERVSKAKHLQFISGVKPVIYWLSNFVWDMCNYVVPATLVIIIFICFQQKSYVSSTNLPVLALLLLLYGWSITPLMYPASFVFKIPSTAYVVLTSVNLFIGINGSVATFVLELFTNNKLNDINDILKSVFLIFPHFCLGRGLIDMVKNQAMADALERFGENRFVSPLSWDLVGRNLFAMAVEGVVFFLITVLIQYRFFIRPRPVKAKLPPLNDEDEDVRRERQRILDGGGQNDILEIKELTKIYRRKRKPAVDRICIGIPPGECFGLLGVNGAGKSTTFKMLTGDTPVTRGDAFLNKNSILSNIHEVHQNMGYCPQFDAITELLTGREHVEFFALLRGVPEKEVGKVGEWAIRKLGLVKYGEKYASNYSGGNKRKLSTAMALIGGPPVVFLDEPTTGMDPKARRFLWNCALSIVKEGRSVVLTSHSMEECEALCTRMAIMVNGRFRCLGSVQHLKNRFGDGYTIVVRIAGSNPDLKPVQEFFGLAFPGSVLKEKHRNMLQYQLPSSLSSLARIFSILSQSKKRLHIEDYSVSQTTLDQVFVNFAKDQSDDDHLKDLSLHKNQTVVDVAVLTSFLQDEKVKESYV
Experiment: cell-based or functional assay

| Binder | ABCA1-dependent cholesterol efflux EC50 [nM] | other results |
| --- | --- | --- |
| B1 | 7200 |  |
| B2 |  | ABCA1-dependent cholesterol efflux, % at 100 uM: 1.4% |
| B3 | 200 |  |
| B4 | 142000 |  |
| B5 | 300 |  |
| B6 | 1000 |  |
| B7 | 44000 |  |
| B8 | 41000 |  |
| B9 |  | ABCA1-dependent cholesterol efflux, % at 100 uM: 1% |
| B10 | 22000 |  |
| B11 | 600 |  |
| B12 |  | ABCA1-dependent cholesterol efflux, % at 100 uM: 1.4% |
| B13 |  | ABCA1-dependent cholesterol efflux, % at 100 uM: 6.2% |
| B14 | 1300 |  |
| B15 | 236000 |  |
| B16 |  | ABCA1-dependent cholesterol efflux, % at 100 uM: 1% |
| B17 | 300 |  |
| B18 |  | ABCA1-dependent cholesterol efflux, % at 100 uM: 1.4% |
| B19 |  | ABCA1-dependent cholesterol efflux, % at 100 uM: 6.3% |
| B20 | 10000 |  |
| B21 | 600 |  |
| B22 | 1100 |  |
| B23 | 300 |  |
| B24 |  | ABCA1-dependent cholesterol efflux, % at 30 uM: < 2% |
| B25 | 1400 |  |
| B26 | 700 |  |
| B27 | 600 |  |
| B28 | 300 |  |
| B29 |  | ABCA1-dependent cholesterol efflux, % at 100 uM: 4% |

— US20110046056A1, “APOA-1 PEPTIDE MIMETICS” (priority 2007, published 2011)
